{"source": "the DeepSol protein solubility set"}
{"assay": "soluble on expression in E. coli; label from the status in PepcDB or PDB records"}
{"sequence": "DYVGGCLDFRPEEGIFRIARDMFTEPELFDLEMELIFEKNWIYACHESELARPHDFVTLRAGRQPLIVTRDGNGQLHALVNACQHRGATLVRVGKGNQSTFTCPFHAWCYKNDGRLVKVKAPGEYPEGFDKATRGLKKARIQSYRGFVFVSLDVAGEDDLVDFLGDARVFLDMLVAQSPSGELEVLPGTSTYTYEGNWKLQNENGLDGYHVSTVHYNYVATVQHRQQVEAERGGVAATLDYSKLGAGDAATDDGWFSFANGHSVLFSEMPNPAVRPGYASVMPRLVAEYGQARAEWMMHRLRNLNLYPSLFVIDQISSQLRIVRPLAWNRTEIVSQCIGVKGESDADRENRIRQFEDFFNVSGMGTPDDLVEFREAQRGFQARLERWSDISRGHGKWLEGATPNSQALGIAPLLTGTEITHEGLYVNQHAHWRRFLLDGLERLALRA", "soluble on expression in E. coli": "not soluble"}
{"sequence": "MGSDKIHHHHHHMLAASMVDLARRLGVSSVHVTFPGGDEYEGLGEAGYLQRLGSQYHWTNPGYQSFDDFLGQLSSRKRKQIRKERDAVARTGIRLSTLVGGDVKARHWDVFHAFYQAVVDRKWGRAYVSRAFFEELSASALADSVVLVWAEDGGEPLGAAFNMLGGDTLYGRTWGGGRHVDFLHFEACYYRALDFAIAQGLARVEAGAQGEHKVSRGYLPNATYSAHWIADSRLAEPVARYLVHERAMVTEDMASQTEEGPFRKG", "soluble on expression in E. coli": "not soluble"}
{"sequence": "MGSDKIHHHHHHAQTGASDGSRFGHGEDSIRCLKNISIYTEYVKTNNFKDAYTPWMSVFTEAPKAQVSTYTNGAKILRALIAGEKDAAKQKQYFNELMKVHDQRIQYLDDLNKLVKRDATKGSIIGMKAHDYFTMGGQDMNEAYNMFKEAIELEKENSDYFVLQEFMDAAARKMKSDEAYKEQFIQDYLFASGVADGALKAATKENDKKLLKVAKDNIDAFFINSGVATCDNLQAIYAPKVEQNKTNLDYLKQVISVMQMLNCTEQEAYFAASEAAHAIEPTAETAVGCGYMYYKKGDMDKCIDYFDQAINLEQDPLKKADYAYKTAAILFSKKQLSKAKQYALKSISLDGNNGKPYILIANMYASSPNWSDEAALNKCTYFAVIDKLQKAKSVDPSVAEEANKLIGTYAAHTPKDADLFFLSLKKGDSVTIGGWIGETTTIR", "soluble on expression in E. coli": "not soluble"}
{"sequence": "GMNLQTDQTTTTADESAIRAFHRQMIDAWNRGSGEGFAAPFSETADFITFEGTHLKGRKEIAAFHQQAFDTVVKGTRLEGEVDFVRFVNSQLALMLVVIRVILPGQTETSASRDSLPLYVVTKGDEGWQIEGLLNTRKLTLERQFFLDDFDSLSAEAQRQVTDLVASLKQSH", "soluble on expression in E. coli": "soluble"}
{"sequence": "MGSDKIHHHHHHMSNHNWTRRDFIKGVGATTAGITLSACNPSGDRSATGLTQEALTIKPVIKSSDLEKPDLIVGYVPVNDCAPFAIAWKKGFFRKYGLNVQLNREASWATSRDGLIFGRLDAAPVVSGAVTNARIGAEGARHAPLCAAMTIHRHGNAMTMNKAMWDFGLRPWYEYQEKYGDGALEAFGRDFRGYFEKQPPENKVWAVVLSSAIYEYFVRYVSAAAGVDPLKEFRVIIVPPPQMVTNVRIGAMQAYMVAEPWNTRAITGNEGIGFTFAQGKEVWLGHPDRLLGVMESFIDQYPKTYRSLVKAMIEACQYCSKPENRQEVAELITDRSFTGARPKNKNLPITKLTAPGIIGSYNYGGFDGKDRTIPAADTTIFYDIPDNLPKQPAEHSTFLWRSRSLWLMTQAARWGQIKEFPKNAEQLAEKGWRTDLYRQIAAEMGIQCPQDDYKVEPPEVFIDKKGFDPSDPVGYLNSFAIRANAPTRFFLS", "soluble on expression in E. coli": "not soluble"}
{"sequence": "MGSDKIHHHHHHMWTPDALSSEVRPYRQDVWRVVEAQSRASTMRLVDSLEEQRLLEDLIDEVKPPVPPSCRQFHYLLSTPFRYGPYPTGSRFRRAGQQDGVFYASESVETAIAELAFYRLLFFVESPGTDLPARPTDHMAFSVPCVADRLIDLTLPPLAQDEAKWVNRLDYTACQDLADIARSARIEAIRYRSVRDPDGGCNLGVLTPAALGATKPQRLETWRLFIRPTGIQVAREFPRAEREFTCADFGADPRLDPFWIRP", "soluble on expression in E. coli": "not soluble"}
{"sequence": "MGSDKIHHHHHHMKVFVTGATGFIGASIARELLKDGCHVRVLARPGSDRRNLDGLDVEVCEGDLCSPESLDRGVKGCEVLYHAAADYRLWTRNPAAMYAANVEGTRHVLDAALRHGVSRVVYTSSVGTLGNPGDGTPGTEATPVTFADMVGDYKKSKFLAEREAETFLARGLPLVIVNPSTPVGPHDVKPTPTGKIIVDFLNRAMPAYLDTGLNIIDVEDCAQGHILAAQHGRIGEKYILGHENLTLRQIFSLLETVTGLAAPKVRLPYLPILAAAYANEALSRITGREPLIPLAGVQMARKFMYFDSSKAVKELGLPQRPAVEALGRAVEWFRANGYVR", "soluble on expression in E. coli": "not soluble"}
{"sequence": "MGSDKIHHHHHHMKVCVGIIGLGRIGHRFGISPQGDPLSHSEGYAQIPNVTVVLGVDPDPEACKNFLQRFSQAQVYSSLKDVPDGLHLEVVSVCSPTHLHAQGVIAALAWRPRVILCEKPLAVNVAEAEIMLAACSAQGCILITNYSRRWTPMLQALKNLTNQDDGLGTPIGACLRYNGGLLHNGTHWIDMLLALFGSVSCTYRLEKLSVAQDDAAESIALSWNSGLTAYLIAVRGTGCSIGEGELWGTGGMLRYSAGGGQVTWQTAQPSQWSGFQELDQAKIICEAGLKGHILGAVTEAVQLAKIGGQPTCSGADGVLALQVVEMARNNKFLIK", "soluble on expression in E. coli": "not soluble"}
{"sequence": "MPNASQVYRSTRSSSPKTISFEEAIIQGLATDGGLFIPPTIPQVDQATLFNDWSKLSFQDLAFAIMRLYIAQEEIPDADLKDLIKRSYSTFRSDEVTPLVQNVTGDKENLHILELFHGPTYAFKDVALQFVGNLFEYFLQRTNANLPEGEKKQITVVGATSGDTGSAAIYGLRGKKDVSVFILYPTGRISPIQEEQMTTVPDENVQTLSVTGTFDNCQDIVKAIFGDKEFNSKHNVGAVNSINWARILAQMTYYFYSFFQATNGKDSKKVKFVVPSGNFGDILAGYFAKKMGLPIEKLAIATNENDILDRFLKSGLYERSDKVAATLSPAMDILISSNFERLLWYLAREYLANGDDLKAGEIVNNWFQELKTNGKFQVDKSIIEGASKDFTSERVSNEETSETIKKIYESSVNPKHYILDPHTAVGVCATERLIAKDNDKSIQYISLSTAHPAKFADAVNNALSGFSNYSFEKDVLPEELKKLSTLKKKLKFIERADVELVKNAIEEELAKMKL", "soluble on expression in E. coli": "soluble"}
{"sequence": "MSIEPTQVSREAELGAFLRTHRERLTPSDVGLPPGRRRRTPGLRREEVAQLSGLSATWITWLEQGRPVAMSVRALGSLAEALRLSRAERAYLFALAGKPEPRQDAEPAVPVALLASVQAISGPAYLLDRQWTARAWNAAAADLFVGWLDAASGERNLLRAMFLPTALQALVEDWPHRAARLVAEFRVHSLRHAEDPPTRALIERLMEDSPAFAAAWRSQDVDERQGGRRGFHHPMRGLVYFEQLTLVPPAAPGMMLVMLLPETP", "soluble on expression in E. coli": "soluble"}
{"sequence": "SAPVGVEKKLLLGPNGPAVAAAGDLTSEEEEGQSLWSSILSEVSTRARSKLPSGKNILVFGEDGSGKTTLMTKLQGAEHGKKGRGLEYLYLSVHDEDRDDHTRCNVWILDGDLYHKGLLKFAVSAESLPETLVIFVADMSRPWTVMESLQKWASVLREHIDKMKIPPEKMRELERKFVKDFQDYMEPEEGCQGSPQRRGPLTSGSDEENVALPLGDNVLTHNLGIPVLVVCTKCDAVSVLEKEHDYRDEHLDFIQSHLRRFCLQYGAALIYTSVKEEKNLDLLYKYIVHKTYGFHFTTPALVVEKDAVFIPAGWDNEKKIAILHENFTTVKPEDAYEDFIVKPPVRKLVHDKELAAEDEQVFLMKQQSLLAKQPATPTRASESPARGPSGSPRTQGRGGPASVPSSSPGTSVKKPDPNIKNNAASEGVLASFFNSLLSKKTGSPGSPGAGGVQSTAKNSGQKTVLSNVQEELDRMTRKPDSMVTNSSTENEA", "soluble on expression in E. coli": "soluble"}
{"sequence": "MAHHHHHHMPEPLEETFSRVLSAKVARAKRVFGGDINETYRLEMEKDDVVYFLKLQRGTTADFYAAESLGLSLLSDVARTPRVVQTGEVNGDAYLIMTWIQSFPSAMRGGVRRNMAELGRMVAIVHRQTSPNGQFGSSVAVPLAGCKTSAGWSKDWATYYIESLLAPQVALARRKGYWSDRREAMFVAFSKRFCAFYASKKNVQPSLLHGDLWGGNVMYGESGEPYLIDPSSYYGHREVDIAMTRLFGGFGSEFYTAYEGEMPLEAGHASRVPWYQLLPLLCHLNLFGEAYGSSVDSAMAHVL", "soluble on expression in E. coli": "not soluble"}
{"sequence": "TDAQKRRRAVGHALAYAGYAEIIPSPFMDPEVFDVWGLAADDERRKTVSVLNPLEAERNVLSTSLLPSMLDAVKRNVARGHNDFSLFGLQQVAFEHGSGVSPMPSVASRPEESVVAELVDSLPNQPLHVATVGTGNIEFEGPWGKGRAYTFADAIESARAVARAAGVTLELANADALPWHPGRCAALLIDGTPVGYAGELHPQILEKAGLPARTCAMELDLSALP", "soluble on expression in E. coli": "not soluble"}
{"sequence": "MAHHHHHHMEDAYAGLCSQSVFEPKMDFTLCINKSIKLFLKDINISKYDKNNVDNKKDVNTSDTKVIETSNDQNQNNQNDQNDQQSDILNNQHLLKENEAFLNGYLYFSRIGHNINLLLNELSSIKKDFRFLNKETRKKIKKFKQVKNKNIIYKDLLQDIKEKRKRKEIYEKLSIEIKKLDEVKKVQEKQKIEKDEINNLEHKILNIENIIKSNNDHIQETINQINKIVSENIQI", "soluble on expression in E. coli": "not soluble"}
{"sequence": "MTNVLYQHGTLGTLMAGLLEGTATINELLEHGNLGIATLTGSDGEVIFLDGKAYHANEHKEFIELKGDEKVPYASITNFKASKTFPLQQLSQDDVFAQIKNEMLSENLFSAVKIYGTFKHMHVRMMPAQQPPYTRLIDSARRQPEEKRQDIRGAIVGFFTPELFHGVGSAGFHIHFADDERAYGGHVLDFEVDDVVVEIQNFETFQQHFPVNNETFVKAKIDYKDVAEEIREAE", "soluble on expression in E. coli": "soluble"}
{"sequence": "MGSDKIHHHHHHMKEYRIRPREANLSFLEDLDEEQRRAVVESEGRCIVIAGPGSGKTRVITYKIAYLLANGVDPSRILLVTFTRAAAREMVERAKAVTGRELSEMLAGTFHHVCNHFLRKYAPYVGLERNYSILDREDAESLMRHARSKYLERKSKEERKNFPQPSVLMAIYSYMKNTLKSLRESIVVKNPKFLDLKEEISEIFDLYEQEKRSQNVVDYEDLLFYAYRLFEENKEIRDREAERFLWILVDEFQDTNYVQYKIVEHLSSKHGNILAVGDDAQSIYSFRGARYENVEDFIRVPGTKIFKIQTNYRSTESIVKFINAMLPRKSVPKELKPVKKDGMKPVVVKTWDRYEEARFVSQRILELIEEGFKPEEIAVLYRSHSHSLELQMELVRSRIDFRVLSGPRFTESAHVKDVLSFLRIVQNPRDKSAWLRAAKLFYGIGDRTASKIADLASAYVEEGLDPFQELKKVSFSGEYSRFIDILDQIRKLDSPGEMIERVLSSFYSEYLEARYPDFREREMDLERLVEIASRYTSLESFLTDLAVTENVEIEREISQKEGKVTLTTVHQAKGLEWRVVFVISVNPGDFPNYFAISEGNLDEEERIFYVAITRAKEQLYISYQVTGTSYPYRGNRFIMRSGENFIDRIPLELVEFWEVK", "soluble on expression in E. coli": "not soluble"}
{"sequence": "SDRAEVRNIPFKLGMYLTVGGVVNSNATRFSINVGESTDSIAMHMDHRFSYGADQNVLVLNSLVHNVGWQQEERSKKFPFTKGDHFQITITFDTHTFYIQLSNGETVEFPNRNKDAAFNLIYLAGDARLTFVRLE", "soluble on expression in E. coli": "soluble"}
{"sequence": "EMETYVNKLHEGSTYTAAVQYNVLEKDDDPASLTIWVPMFQSSMPADLLIKELANVNILVKQISTPKGPSLRVMINSRSAVLAQMPSKFTICANVSLDDRSKLAYDVTTPCEIKACSLTCLKSKNMLTTVKDLTMKTLNPTHDIIALCEFENIVTSKKVIIPTYLRSISVRNKDLNTLENITTTEFKNAITNAKIIPYSGLLLVITVTDNKGAFKYIKPQSQFIVDLGAYLEKESIYYVTTNWKHTATRFAIKPRED", "soluble on expression in E. coli": "soluble"}
